B1: purified budding yeast tubulin heterodimer, Tub1-WT (internal 6X-His) with Tub2 [S. cerevisiae] / GST-TOG1/2 (the two TOG domains of Stu2 fused to a GST tag, Stu2 1-590) [S. cerevisiae] (parent complex)
chain 1: MREVISINVGQAGCQIGNACWELYSLEHGIKPDGHLEDGLSKPKGGEEGFSTFFHETGYGKFVPRAIYVDLEPNVIDEVRNGPYKDLFHPEQLISGKEDAANNYARGHYTVGREILGDVLDRIRKLADQCDGLQGFLFTHSLGGGTGSGLGSLLLEELSAEYGKKSKLEFAVYPAPQVSTSVVEPYNTVLTTHTTLEHADCTFMVDNEAIYDMCKRNLDIPRPSFANLNNLIAQVVSSVTASLRFDGSLNVDLNEFQTNLVPYPRIHFPLVSYSPVLSKSKAFHESNSVSEITNACFEPGNQMVKCDPRDGKYMATCLLYRGDVVTRDVQRAVEQVKNKKTVQLVDWCPTGFKIGICYEPPTATPNSQLATVDRAVCMLSNTTSIAEAWKRIDRKFDLMYAKRAFVHWYVGEGMEEGEFTEAREDLAALERDYIEVGADSYAEEEEF
chain 2: MREIIHISTGQCGNQIGAAFWETICGEHGLDFNGTYHGHDDIQKERLNVYFNEASSGKWVPRSINVDLEPGTIDAVRNSAIGNLFRPDNYIFGQSSAGNVWAKGHYTEGAELVDSVMDVIRREAEGCDSLQGFQITHSLGGGTGSGMGTLLISKIREEFPDRMMATFSVLPSPKTSDTVVEPYNATLSVHQLVEHSDETFCIDNEALYDICQRTLKLNQPSYGDLNNLVSSVMSGVTTSLRYPGQLNSDLRKLAVNLVPFPRLHFFMVGYAPLTAIGSQSFRSLTVPELTQQMFDAKNMMAAADPRNGRYLTVAAFFRGKVSVKEVEDEMHKVQSKNSDYFVEWIPNNVQTAVCSVAPQGLDMAATFIANSTSIQELFKRVGDQFSAMFKRKAFLHWYTSEGMDELEFSEAESNMNDLVSEYQQYQEATVEDDEEVDENGDFGAPQNQDEPITENFE
chain 3: MSGEEEVDYTTLPLEERLTYKLWKARLEAYKELNQLFRNSVGDISRDDNIQIYWRDPTLFAQYITDSNVVAQEQAIVALNSLIDAFASSSLKNAHNITLISTWTPLLVEKGLTSSRATTKTQSMSCILSLCGLDTSITQSVELVIPFFEKKLPKLIAAAANCVYELMAAFGLTNVNVQTFLPELLKHVPQLAGHGDRNVRSQTMNLIVEIYKVTGNNSDLLEEILFKKLKPIQVKDLHKLFAKVGDEPSSSKMLFEWEKRELEKKRSQEEEARKRKSILSNDEGEYQIDKDGDTLMGMETDMPPSKQQSGVQIDTFSMLPEETILDKLPKDFQERITSSKWKDRVEALEEFWDSVLSQTKKLKSTSQNYSNLLGIYGHIIQKDANIQAVALAAQSVELICDKLKTPGFSKDYVSLVFTPLLDRTKEKKPSVIEAIRKALLTICKYYDPLASSGRNEDMLKDILEHMKHKTPQIRMECTQLFNASMKEEKDGYSTLQRYLKDEVVPIVIQIVNDTQPAIRTIGFESFAILIKIFGMNTFVKTLEHLDNLKRKKIEETVKTLPNFSIASGSTHSTIETNKQTGPMENKFLLK

Variants of: B1
Assay: in vitro binding assay: unbound tubulin in supernatant after GST-TOG1/2 incubation, α-tubulin western blot; highest GST-TOG1/2 concentration, est. ~5000 nM read from x axis; low constant tubulin concentration; n=3 experiments; parent: 14; read off a plot

screen value [%] | Variant
~71 | chain 1 V410I
~85 | chain 1 V410A

Source: PMC9236607, “TUBA1A tubulinopathy mutants disrupt neuron morphogenesis and override XMAP215/Stu2 regulation of microtubule dynamics” (eLife, 2022)
